Results published in article doi:10.1101/2021.01.26.428356, “Sequence signatures of two IGHV3-53/3-66 public clonotypes to SARS-CoV-2 receptor binding domain” (bioRxiv, 2021).

B1: COV107-23 Fab, wild type (F58) (Fab, V domains shown)
VH: EVQLVESGGGLIQPGGSLRLSCAASGFTVSSNYMSWVRQAPGKGLEWVSVIYSGGSTFYADSVKGRFTISRDNSKNTLYLQMNSLRAEDTAVYYCARDLGTGLFDYWGQGTLVTVSS
VL: DIQLTQSPSFLSASVGDRVTITCRASQGISSYLAWYQQKPGKAPKLLIYAASTLQSGVPSRFSGSGSGTEFTLTISSLQPEDFATYYCQQLDSYPPGTFGPGTKVDIK
notes: also called WT COV107-23; clonotype 1 antibody; source: Expi293F, transiently co-transfected, purified (CaptureSelect CH1-XL column)
B2: COVA2-20 Fab, wild type (Y58) (Fab, V domains shown)
VH: EVQLVESGGGLIQPGGSLRLSCAASGFTVSSNYMSWVRQAPGKGLEWVSVIYSGGSTYYADSVKGRFTISRDNSKNTLYLQMNSLRAEDTAVYYCASPLLLTPPDYYYYMDVWGKGTMVTVSS
VL: DVVMTQSPSSLSVSVGDRVTITCRASQGIRNDLGWYQQKPGKAPKRLIYAASSLQSGVPSRFSGSGSGTEFTLTISSLQPEDFATYYCLQHNSYLWTFGQGTKLEIK

Target: T1, Fc-tagged receptor-binding domain (RBD) of the SARS-CoV-2 spike (S) protein (SARS-CoV-2, Wuhan-Hu-1 (GenBank …, UniProt P0DTC2))
T1 construct: also called SARS-CoV-2 RBD; SARS-CoV-2 S RBD-Fc; not shown: Fc, C-terminal, kept
Experiment: BLI; Octet Red96e; Fc-tagged RBD loaded onto the biosensor (streptavidin biosensors as printed), Fab in solution; 1x PBS pH 7.4, 0.01% w/v BSA, 0.002% v/v Tween 20; 60 s association, 60 s dissociation; 1:1 binding model
Conditions: both partners purified

Row | Binder | Kd | binding result
1 | B1 | 1 nM | 
2 | B2 |  | binds
